Experimental data published in the Immune Epitope Database (IEDB).
Blank lines part the entries; values can stand above or below the sequence they belong to.

Assays:
HLA-B*07:02 [1] = experiment: IEDB peptide-MHC binding, purified MHC/direct/fluorescence; filed as Kd, often an IC50 or EC50 that approximates it; ≥ and ≤ were set here for values at or beyond the usual limits of such assays; conditions: source organism: Escherichia coli O157:H7 str. EC869
HLA-B*15:01 [2] = experiment: as above; conditions: source organism: Escherichia coli O157:H7
HLA-B*15:02 = experiment: as above; conditions: source organism: Escherichia coli O157:H7 str. EC869
HLA-B*35:01 = experiment: as above; conditions: source organism: Escherichia coli O157:H7 str. EC869
HLA-B*46:01 [3] = experiment: as above; conditions: source organism: Escherichia coli O157:H7
HLA-A*01:01 = experiment: IEDB peptide-MHC binding, purified MHC/competitive/fluorescence; filed as Kd, often an IC50 or EC50 that approximates it; ≥ and ≤ were set here for values at or beyond the usual limits of such assays; conditions: source organism: Pseudomonas aeruginosa UCBPP-PA14
HLA-A*03:01 = experiment: as above
HLA-A*11:01 = experiment: as above; conditions: source organism: Pseudomonas aeruginosa UCBPP-PA14
HLA-A*24:02 = experiment: as above; conditions: source organism: Pseudomonas aeruginosa UCBPP-PA14
HLA-A*26:01 = experiment: as above
HLA-A*30:01 = experiment: as above; conditions: source organism: Pseudomonas aeruginosa UCBPP-PA14
HLA-A*31:01 = experiment: as above; conditions: source organism: Pseudomonas aeruginosa UCBPP-PA14
HLA-A*69:01 = experiment: as above
HLA-B*07:02 [4] = experiment: as above; conditions: source organism: Pseudomonas aeruginosa UCBPP-PA14
HLA-B*08:01 = experiment: as above; conditions: source organism: Pseudomonas aeruginosa UCBPP-PA14
HLA-B*15:01 [5] = experiment: as above
HLA-B*27:05 = experiment: as above; conditions: source organism: Pseudomonas aeruginosa UCBPP-PA14
HLA-B*40:01 = experiment: as above; conditions: source organism: Pseudomonas aeruginosa UCBPP-PA14
HLA-B*58:01 = experiment: as above; conditions: source organism: Pseudomonas aeruginosa UCBPP-PA14
HLA-A*02:01 = experiment: as above
HLA-A*02:03 = experiment: as above
HLA-A*02:11 = experiment: as above
HLA-A*02:12 = experiment: as above
HLA-A*02:16 = experiment: as above
HLA-A*02:19 = experiment: as above
HLA-A*23:01 = experiment: as above
HLA-A*24:03 = experiment: as above
HLA-A*29:02 = experiment: as above
HLA-A*68:02 = experiment: as above
HLA-B*18:01 = experiment: as above
HLA-B*39:01 = experiment: as above
HLA-B*46:01 [6] = experiment: as above
HLA-B*51:01 = experiment: as above
HLA-B*57:01 = experiment: as above
HLA-B*15:17 = experiment: as above; conditions: source organism: Cryptosporidium parvum Iowa II
HLA-B*27:03 = experiment: as above
[7] = source organism: Pseudomonas aeruginosa UCBPP-PA14
[8] = source organism: Entamoeba dispar SAW760
[9] = source organism: Cryptosporidium parvum Iowa II
[10] = source organism: Giardia lamblia ATCC 50803

Kd (HLA-B*07:02 [1]): 2.21 µM
Kd (HLA-B*15:01 [2]): 0.107 µM
Kd (HLA-B*15:02): 0.013 µM
Kd (HLA-B*35:01): 0.01 µM
Kd (HLA-B*46:01 [3]): ≥ 20 µM
Sequence: NIAAPYLPF

Kd (HLA-A*01:01): ≥ 20 µM
Kd (HLA-A*03:01; [7]): 0.291 µM
Kd (HLA-A*11:01): 0.0306 µM
Kd (HLA-A*24:02): ≥ 20 µM
Kd (HLA-A*26:01; [7]): ≥ 20 µM
Kd (HLA-A*30:01): ≥ 20 µM
Kd (HLA-A*31:01): 1.26 µM
Kd (HLA-A*69:01; [7]): ≥ 20 µM
Kd (HLA-B*07:02 [4]): ≥ 20 µM
Kd (HLA-B*08:01): ≥ 20 µM
Kd (HLA-B*15:01 [5]; [7]): 0.11 µM
Kd (HLA-B*27:05): ≥ 20 µM
Kd (HLA-B*40:01): ≥ 20 µM
Kd (HLA-B*58:01): 1.12 µM
Sequence: AVFDGCVVY

Sequence: KGFFRVFKK
Kd (HLA-A*02:01; [8]): ≥ 20 µM
Kd (HLA-A*02:03; [8]): ≥ 20 µM
Kd (HLA-A*02:11; [8]): ≥ 20 µM
Kd (HLA-A*02:12; [8]): ≥ 20 µM
Kd (HLA-A*02:16; [8]): ≥ 20 µM
Kd (HLA-A*02:19; [8]): ≥ 20 µM
Kd (HLA-A*03:01; [8]): 0.0049 µM
Kd (HLA-A*23:01; [8]): ≥ 20 µM
Kd (HLA-A*24:03; [8]): ≥ 20 µM
Kd (HLA-A*26:01; [8]): ≥ 20 µM
Kd (HLA-A*29:02; [8]): 0.189 µM
Kd (HLA-A*68:02; [8]): ≥ 20 µM
Kd (HLA-A*69:01; [8]): ≥ 20 µM
Kd (HLA-B*15:01 [5]; [8]): ≥ 20 µM
Kd (HLA-B*18:01; [8]): ≥ 20 µM
Kd (HLA-B*39:01; [8]): ≥ 20 µM
Kd (HLA-B*46:01 [6]; [8]): ≥ 20 µM
Kd (HLA-B*51:01; [8]): ≥ 20 µM
Kd (HLA-B*57:01; [8]): ≥ 20 µM

Sequence: RLKHIFLIF
Kd (HLA-A*02:01; [9]): ≥ 20 µM
Kd (HLA-A*02:03; [9]): ≥ 20 µM
Kd (HLA-A*02:11; [9]): ≥ 20 µM
Kd (HLA-A*02:12; [9]): ≥ 20 µM
Kd (HLA-A*02:16; [9]): ≥ 20 µM
Kd (HLA-A*02:19; [9]): ≥ 20 µM
Kd (HLA-A*03:01; [9]): ≥ 20 µM
Kd (HLA-A*23:01; [9]): ≥ 20 µM
Kd (HLA-A*24:03; [9]): ≥ 20 µM
Kd (HLA-A*26:01; [9]): ≥ 20 µM
Kd (HLA-A*29:02; [9]): ≥ 20 µM
Kd (HLA-A*68:02; [9]): ≥ 20 µM
Kd (HLA-A*69:01; [9]): ≥ 20 µM
Kd (HLA-B*15:17): ≥ 20 µM
Kd (HLA-B*18:01; [9]): ≥ 20 µM
Kd (HLA-B*27:03; [9]): ≥ 20 µM
Kd (HLA-B*39:01; [9]): ≥ 20 µM
Kd (HLA-B*46:01 [6]; [9]): ≥ 20 µM
Kd (HLA-B*51:01; [9]): ≥ 20 µM
Kd (HLA-B*57:01; [9]): ≥ 20 µM

Sequence: ELLDHLLLF
Kd (HLA-A*02:01; [10]): ≥ 20 µM
Kd (HLA-A*02:03; [10]): ≥ 20 µM
Kd (HLA-A*02:11; [10]): ≥ 20 µM
Kd (HLA-A*02:12; [10]): ≥ 20 µM
Kd (HLA-A*02:16; [10]): ≥ 20 µM
Kd (HLA-A*02:19; [10]): 0.98 µM
Kd (HLA-A*03:01; [10]): ≥ 20 µM
Kd (HLA-A*29:02; [10]): 0.0161 µM
Kd (HLA-A*68:02; [10]): ≥ 20 µM
Kd (HLA-B*15:01 [5]; [10]): ≥ 20 µM
Kd (HLA-B*18:01; [10]): ≥ 20 µM
Kd (HLA-B*27:03; [10]): ≥ 20 µM
Kd (HLA-B*39:01; [10]): ≥ 20 µM
Kd (HLA-B*46:01 [6]; [10]): ≥ 20 µM
Kd (HLA-B*51:01; [10]): ≥ 20 µM
Kd (HLA-B*57:01; [10]): ≥ 20 µM
